According to PMC12663309, “NEK7 couples SDHB to orchestrate respiratory chain electron transport homeostasis that impedes liver fibrosis” (Nature Communications, 2025):

Molecular target: T1, human NEK7 recombinant protein (HY-P75935, MCE) (human, UniProt Q8TDX7 1-302, RED-NHS dye label (in the MST only))
T1 construct: NEK7, human, commercially sourced recombinant protein; the vendor's catalogue entry would tell them; source: bought: MCE (HY-P75935), recombinant, purity 94%
Assay: SPR; Biacore T200; NEK7 or NEK7-mut immobilised by amine coupling; SDHB flowed at different concentrations; 1:1 Langmuir binding model
Details: both partners purified

T1 sequence (Q8TDX7 whole entry, one chain of several): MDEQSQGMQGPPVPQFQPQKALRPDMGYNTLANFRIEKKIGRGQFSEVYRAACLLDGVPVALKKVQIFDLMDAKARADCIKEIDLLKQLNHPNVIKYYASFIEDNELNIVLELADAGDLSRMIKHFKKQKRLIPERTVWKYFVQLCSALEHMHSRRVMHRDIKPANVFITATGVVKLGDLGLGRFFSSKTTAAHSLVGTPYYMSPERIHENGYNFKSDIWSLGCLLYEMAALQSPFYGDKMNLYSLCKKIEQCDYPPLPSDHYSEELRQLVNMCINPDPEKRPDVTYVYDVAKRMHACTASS

B1: human SDHB recombinant protein (Ag29868, Proteintech) (natural protein, UniProt P21912 29-280, looked up)
chain: AQTAAATAPRIKKFAIYRWDPDKAGDKPHMQTYEVDLNKCGPMVLDALIKIKNEVDSTLTFRRSCREGICGSCAMNINGGNTLACTRRIDTNLNKVSKIYPLPHMYVIKDLVPDLSNFYAQYKSIEPYLKKKDESQEGKQQYLQSIEEREKLDGLYECILCACCSTSCPSYWWNGDKYLGPAVLMQAYRWMIDSRDDFTEERLAKLQDPFSLYRCHTIMNCTRTCPKGLNPGKAIAEIKKMMATYKEKKASV
notes: SDHB, human, commercially sourced recombinant protein; the vendor's catalogue entry would tell them (such antigen proteins may be tagged fragments); source: bought: Proteintech (Ag29868), recombinant, purity 80%
**Q.** B1 was tested. Which Kd did it give?
**A.** 349 nM
